T1: full length human LEPR on cells (human, UniProt P48357 22-1165)
T1 construct: also called HEK293/Stat3-luc/hLEPR-FL; hLEPR-FL
T1 sequence: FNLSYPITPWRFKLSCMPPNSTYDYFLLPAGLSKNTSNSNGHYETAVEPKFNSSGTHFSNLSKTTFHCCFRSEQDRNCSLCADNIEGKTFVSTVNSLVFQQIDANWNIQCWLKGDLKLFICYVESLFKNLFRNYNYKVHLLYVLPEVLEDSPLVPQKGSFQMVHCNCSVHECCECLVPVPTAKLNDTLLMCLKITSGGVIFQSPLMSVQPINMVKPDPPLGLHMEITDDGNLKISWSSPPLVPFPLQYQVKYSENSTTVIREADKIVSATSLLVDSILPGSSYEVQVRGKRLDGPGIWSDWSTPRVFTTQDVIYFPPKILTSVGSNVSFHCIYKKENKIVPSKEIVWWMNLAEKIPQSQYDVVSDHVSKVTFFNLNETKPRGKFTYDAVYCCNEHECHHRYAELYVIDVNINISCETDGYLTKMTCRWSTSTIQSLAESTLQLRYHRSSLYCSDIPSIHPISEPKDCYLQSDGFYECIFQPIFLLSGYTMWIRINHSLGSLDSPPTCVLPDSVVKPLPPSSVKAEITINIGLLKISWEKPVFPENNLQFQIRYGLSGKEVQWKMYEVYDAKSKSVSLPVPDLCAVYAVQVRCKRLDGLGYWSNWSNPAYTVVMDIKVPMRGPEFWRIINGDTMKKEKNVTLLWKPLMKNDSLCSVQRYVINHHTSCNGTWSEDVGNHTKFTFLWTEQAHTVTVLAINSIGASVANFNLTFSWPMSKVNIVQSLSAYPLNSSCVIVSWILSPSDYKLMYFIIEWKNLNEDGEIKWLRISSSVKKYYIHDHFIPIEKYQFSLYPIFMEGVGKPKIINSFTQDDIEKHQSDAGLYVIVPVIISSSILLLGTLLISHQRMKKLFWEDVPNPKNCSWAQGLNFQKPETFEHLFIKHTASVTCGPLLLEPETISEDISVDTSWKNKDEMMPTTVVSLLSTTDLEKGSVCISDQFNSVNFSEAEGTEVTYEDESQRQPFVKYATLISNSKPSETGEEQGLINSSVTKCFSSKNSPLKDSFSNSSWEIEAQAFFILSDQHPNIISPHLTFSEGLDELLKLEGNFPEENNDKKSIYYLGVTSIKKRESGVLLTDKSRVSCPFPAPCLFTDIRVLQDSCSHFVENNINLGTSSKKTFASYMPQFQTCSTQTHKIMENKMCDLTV

B1: H4H17319P2 (antibody, human IgG4, V domains shown)
VH: QVQLVESGGSVVQPGRSLRLSCAASGFTFSTYAMYWVRQTPGKGLEWVAVLYSDGSNKYYIDSVKGRFTISRDTSTNTLYLQMSSLRADDSALYYCARLNWDYWYFDLWGRGTLVTVSS
VL: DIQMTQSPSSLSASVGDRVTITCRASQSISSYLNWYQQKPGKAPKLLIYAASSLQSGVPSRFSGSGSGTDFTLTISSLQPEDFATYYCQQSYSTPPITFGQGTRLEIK
notes: Fully human antibody with human IgG4 Fc (H4H prefix)
B2: H4H16650P2 (antibody, human IgG4, V domains shown)
VH: QVQLVESGGGVVQPGKSLRLSCVASGFTFSSDAMYWVRQAPGKGLEWVAVIYYDGNYQYYEDSVKGRFTISRDNSQNTLDLQMNSLRVDDTAVYFCARLNWDYWYLDLWGRGTLVTVSS
VL: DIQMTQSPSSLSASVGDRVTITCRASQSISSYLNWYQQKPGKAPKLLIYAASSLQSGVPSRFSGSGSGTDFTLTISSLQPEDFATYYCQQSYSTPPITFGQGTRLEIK
notes: as for B1
B3: H4H16679P2 (antibody, human IgG4, V domains shown)
VH: QVQLVESGGGVVQPGRSLRLSCTASGFTFSSYAMYWVRQAPGKGLEWVSVIYYDGSYKYYADSVKGRFTISRDNSKNTLYLQMDSLRAEDTAVYYCASYNWNYWYFDFWGRGTLVTVSS
VL: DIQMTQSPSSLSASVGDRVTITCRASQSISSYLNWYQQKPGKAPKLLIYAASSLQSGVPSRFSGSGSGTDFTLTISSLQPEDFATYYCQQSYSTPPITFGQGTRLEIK
notes: as for B1
B4: H4H17321P2 (antibody, human IgG4, V domains shown)
VH: QVQLVESGGGVVQPGRSLRLSCEASGFSSSDNAMYWVRQAPGKGLEWVSVIYHDGSYKYYEDSVKGRFTIARDNSKNTLYLQMNSLRAEDTAVYYCARYNWNHWYFDVWGRGTLVTVSS
VL: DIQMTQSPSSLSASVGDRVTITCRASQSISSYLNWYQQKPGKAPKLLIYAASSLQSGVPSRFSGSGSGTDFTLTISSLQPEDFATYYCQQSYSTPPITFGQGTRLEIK
notes: as for B1
B5: H4H18446P2 (antibody, human IgG4, V domains shown)
VH: EVQLVESGGGLVQPGGSLRLSCAASGFTFSNYGMTWVRQAPGKGLEWVSAITGGGGSTYYSNSVKGRFTISRDNSKNTVYLRMNSVRAEDTAVYYCAKYKWNFVDDWGQGTTVTVSS
VL: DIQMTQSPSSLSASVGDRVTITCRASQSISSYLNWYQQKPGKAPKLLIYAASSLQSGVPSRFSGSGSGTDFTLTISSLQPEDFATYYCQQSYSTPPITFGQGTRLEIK
notes: as for B1
B6: H4H18445P2 (antibody, human IgG4, V domains shown)
VH: QVQLQESGPGLVKPSQTLSLTCTVSGGSISSGGDYWSWIRQLPGKGLEWIGYIYYSGSAYYNPSLKSRGTISIDTSKNQFSLKLTSVTAADTAVYFCVKLRFLEWFLGGWFGPWGQGTLVTVSS
VL: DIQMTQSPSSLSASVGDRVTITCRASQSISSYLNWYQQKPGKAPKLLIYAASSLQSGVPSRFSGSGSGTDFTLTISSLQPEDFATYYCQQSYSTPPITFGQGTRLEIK
notes: as for B1
B7: H4H18438P2 (antibody, human IgG4, V domains shown)
VH: QVQLVESGGGVVQPGRSLRLSCAASGFSFNTYGMHWVRQAPGKGLEWVTIIWYDGSIKYYADSVKGRFTISRDNSKNTLYLQMNSLRAEDTAVYYCARGGYSGYLYFDYWGQGTLVTVSS
VL: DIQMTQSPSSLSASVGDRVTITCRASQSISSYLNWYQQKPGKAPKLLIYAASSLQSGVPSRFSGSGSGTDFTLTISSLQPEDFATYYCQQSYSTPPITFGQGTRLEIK
notes: as for B1
B8: H4H18449P2 (antibody, human IgG4, V domains shown)
VH: EVQLVESGGGLVQPGGSLRLSCVASGFTFNKYDMHWVRQTTGKGLEWVSGIDTDGDTYYPGSVKGRFTISRENAENSLYLQMNGLRVGDTAVYYCARWPWSGFYGAFDIWGQGTMVTVSS
VL: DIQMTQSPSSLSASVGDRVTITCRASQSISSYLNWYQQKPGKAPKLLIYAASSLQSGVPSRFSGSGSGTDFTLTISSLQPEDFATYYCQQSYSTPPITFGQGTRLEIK
notes: as for B1
B9: H4H18417P2 (antibody, human IgG4, V domains shown)
VH: QVQLVESGGGVVQPGRSLRLSCAASGFTFSTYGMHWVRQAPGKGLEWVSVISYDESNKYYADSVKGRFTISRDNSKNALYLQMNSLRNEDTAVYYCARDRPFGLVTGWFDPWGQGTLVTVSS
VL: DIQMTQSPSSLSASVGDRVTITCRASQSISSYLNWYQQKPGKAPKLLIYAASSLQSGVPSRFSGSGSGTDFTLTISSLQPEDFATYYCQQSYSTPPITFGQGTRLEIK
notes: as for B1

What follows are binders tested against T2, preformed complex of hLEPR-MMH and human Leptin (human, UniProt P41159 22-167) (assay: SPR, mAb over preformed hLEPR-MMH:Leptin complex, 25C).
T2 construct: also called hLEPR-MMH: human Leptin complex; Leptn;LEPR
Description: The entire study was performed in 10 mM HEPES pH 7.4, 150 mM NaCl, 3 mM EDTA, and 0.05% v/v Surfactant Tween-20 (HBS-ET running buffer) at 25° C.

T2 sequence (P41159 22-167 limits assumed, one chain of several): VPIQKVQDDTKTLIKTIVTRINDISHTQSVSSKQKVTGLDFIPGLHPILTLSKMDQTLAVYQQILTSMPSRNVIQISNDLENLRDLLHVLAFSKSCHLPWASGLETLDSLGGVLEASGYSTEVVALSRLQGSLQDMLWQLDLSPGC

200 nM mAb Bound (RU)	Binder
92	B1
81	B2
90	B3

These binders were tested against T1, full length human LEPR on cells (assay: FACS, HEK293/Stat3-luc/hLEPR-FL, 70 nM Ab).

Binding Ratio [fold over unstained]	Binder
47	B1
42	B2
51	B3
46	B4

What follows are binders tested against extracellular domain of Macaca fascicularis LEPR fused with the transmembrane and cytosolic domains of human … (Macaca fascicularis; human, UniProt P48357 840-1165) (assay: cell-based or functional assay).

% Activation [%]	EC50, STAT3-Luc reporter, IMR-32/STAT3-Luc/MfLEPR cells [nM]	Binder
76	0.365	B1
82	0.266	B2
80	0.249	B3
78	0.368	B4

What follows are binders tested against T3, human LEPR CRH1 (D1)-MMH (human, UniProt P48357 22-229, limits assumed) (assay: Luminex, myc-captured LEPR domain).
T3 construct: domain: CRH1 (D1); Transiently expressed, captured from supernatant on anti-myc beads
Description: (§1) Aliquots of microspheres with immobilized anti-myc monoclonal antibodies, prepared as described above, were added individually to 1 mL of the each of these protein supernatants. The microspheres were gently mixed, incubated for two hours at 25° C., washed twice with 1 mL of DBPS, centrifuged to remove the supernatant and finally resuspended in 1 mL of DPBS buffer. Forty-eight μL of anti-myc IgG coupled microspheres from individual reactions with full length human LEPR and with each of the human LEPR domain proteins were withdrawn and mixed together in 3.6 mL of PBS+20 mg/mL BSA+0.05% sodium azide (blocking buffer).
(§2) From this mixed pool, 75 μL of microspheres were plated per well on a 96 well filter plate (Millipore, Cat. No: MSBVN1250) and mixed with 25 μL of individual anti-human LEPR monoclonal antibodies (0.5 or 5 µg/mL), incubated for two hours at 25° C. and then washed twice with 200 μL of DPBS with 0.05% Tween 20 (washing buffer). […] After 30 minutes, the samples were washed twice with 200 μL of washing buffer and resuspended in 150 μL of wash buffer. The Median Fluorescence intensity (MFI) of the microspheres was measured in a Luminex Analyzer.

MFI [MFI]	Binder
17	B5
12	B6
8	B1
13	B7
8	B2
20	B8
12	B3
9	B4
10	B9

Each binder was assayed against T4, human LEPR Ig (D3)-MMH (human, UniProt P48357 340-427, limits assumed) (assay: Luminex, myc-captured LEPR domain).
T4 construct: domain: Ig (D3); Transiently expressed, captured from supernatant on anti-myc beads
Description: as §1, §2

T4 sequence (P48357 other isoform, or with tags, fused parts or gaps limits assumed): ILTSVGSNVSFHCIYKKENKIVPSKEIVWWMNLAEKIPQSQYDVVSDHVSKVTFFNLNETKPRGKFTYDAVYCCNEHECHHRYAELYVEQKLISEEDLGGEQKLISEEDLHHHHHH

MFI [MFI]	Binder
25	B5
19	B6
8	B1
30	B7
10	B2
24	B8
14	B3
7	B4
17	B9

What follows are binders tested against T5, human LEPR FNIII-MMH (human, UniProt P48357 636-839, limits assumed) (assay: Luminex, myc-captured LEPR domain).
T5 construct: domain: FNIII; Transiently expressed, captured from supernatant on anti-myc beads
Description: as §1, §2

T5 sequence (P48357 other isoform, or with tags, fused parts or gaps limits assumed): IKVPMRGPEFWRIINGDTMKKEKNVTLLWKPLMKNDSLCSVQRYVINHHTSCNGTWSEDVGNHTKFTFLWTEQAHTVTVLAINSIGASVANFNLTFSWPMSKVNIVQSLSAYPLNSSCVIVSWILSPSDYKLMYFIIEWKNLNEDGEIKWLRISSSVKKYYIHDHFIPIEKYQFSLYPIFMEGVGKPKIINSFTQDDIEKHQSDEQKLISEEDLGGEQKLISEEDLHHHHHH

MFI [MFI]	Binder
32	B5
230	B6
20	B1
25	B7
6	B2
13	B8
10	B3
40	B4
14	B9

What follows are binders tested against T6, human LEPR CRH1-Ig (D2,D3)-MMH (human, UniProt P48357 230-427, limits assumed) (assay: Luminex, myc-captured LEPR domain).
T6 construct: domain: CRH1-Ig (D2,D3); Transiently expressed, captured from supernatant on anti-myc beads
Description: as §1, §2

T6 sequence (P48357 other isoform, or with tags, fused parts or gaps limits assumed): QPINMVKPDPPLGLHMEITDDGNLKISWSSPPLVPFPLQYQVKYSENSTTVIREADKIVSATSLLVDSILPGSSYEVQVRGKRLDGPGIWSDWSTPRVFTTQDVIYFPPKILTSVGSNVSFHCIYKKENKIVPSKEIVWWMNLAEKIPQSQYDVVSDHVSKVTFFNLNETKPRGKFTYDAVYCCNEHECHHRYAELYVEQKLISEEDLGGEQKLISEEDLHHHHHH

MFI [MFI]	Binder
40	B6
14	B1
8880	B7
74	B2
42	B8
34	B3
15	B4
5500	B9

The binders below were run against T7, human LEPR Ig-CRH2-FNIII-MMH (human, UniProt P48357 330-839, limits assumed) (assay: Luminex, myc-captured LEPR domain).
T7 construct: domain: Ig-CRH2-FNIII; Transiently expressed, captured from supernatant on anti-myc beads
Description: as §1, §2

T7 sequence (P48357 other isoform, or with tags, fused parts or gaps limits assumed): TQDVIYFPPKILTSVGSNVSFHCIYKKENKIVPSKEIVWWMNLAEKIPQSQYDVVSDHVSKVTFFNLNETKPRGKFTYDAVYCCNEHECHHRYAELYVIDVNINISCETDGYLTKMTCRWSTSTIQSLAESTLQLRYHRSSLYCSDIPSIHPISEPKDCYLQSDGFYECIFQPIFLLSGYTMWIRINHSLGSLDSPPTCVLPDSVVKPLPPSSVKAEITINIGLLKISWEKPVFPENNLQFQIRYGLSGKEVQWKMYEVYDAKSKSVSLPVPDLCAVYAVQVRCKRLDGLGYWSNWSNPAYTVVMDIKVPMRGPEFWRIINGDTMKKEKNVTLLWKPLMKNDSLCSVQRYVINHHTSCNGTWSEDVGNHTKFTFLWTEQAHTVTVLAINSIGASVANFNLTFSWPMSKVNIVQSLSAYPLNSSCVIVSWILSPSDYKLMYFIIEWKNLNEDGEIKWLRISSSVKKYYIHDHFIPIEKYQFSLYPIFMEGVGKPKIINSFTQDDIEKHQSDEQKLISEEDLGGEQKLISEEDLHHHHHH

MFI [MFI]	Binder
16900	B5
14500	B6
8	B1
468	B7
110	B2
43	B8
42	B3
14	B4
37	B9

Each binder was assayed against T8, human LEPR CRH1 (D1,D2)-MMH (human, UniProt P48357 22-339, limits assumed) (assay: Luminex, myc-captured LEPR domain).
T8 construct: domain: CRH1 (D1,D2); Transiently expressed, captured from supernatant on anti-myc beads
Description: as §1, §2

MFI [MFI]	Binder
682	B5
30	B6
1250	B1
18900	B7
4720	B2
2930	B8
4390	B3
2650	B4
16000	B9
